Patent publication US20150344570A1 (published 2015)

T1: FcγRIIa R (FcγRIIa allotype with Arg at position 131), extracellular domain with C-terminal His tag (human, UniProt P12318 34-217)
T1 construct: extracellular domain; made in FreeStyle293 cells; analyte in the Biacore assay; also called FcγRIIa type R; 2aR
T1 sequence (looked up): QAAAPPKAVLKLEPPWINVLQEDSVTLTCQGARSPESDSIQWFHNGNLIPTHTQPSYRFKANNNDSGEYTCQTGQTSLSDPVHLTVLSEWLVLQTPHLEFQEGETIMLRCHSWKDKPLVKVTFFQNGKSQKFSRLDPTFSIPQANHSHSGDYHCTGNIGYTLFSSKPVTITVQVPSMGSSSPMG

T2: FcγRIIb, extracellular domain with C-terminal His tag (human, UniProt P31994 43-217)
T2 construct: extracellular domain; made in FreeStyle293 cells; analyte in the Biacore assay; also called 2b; FcgRIIb
T2 sequence (looked up): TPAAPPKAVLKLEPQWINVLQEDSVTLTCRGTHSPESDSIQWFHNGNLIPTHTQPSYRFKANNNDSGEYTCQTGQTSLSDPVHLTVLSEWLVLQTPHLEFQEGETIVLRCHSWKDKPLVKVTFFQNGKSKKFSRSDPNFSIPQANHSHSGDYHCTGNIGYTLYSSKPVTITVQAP

B1: GpH7-A5/GpH7-B3 variant E333_07I/GpL16-k0 (antibody, human IgG1, kappa)
heavy 1: not shown
heavy 2: not shown
light: DIVMTQSPLSLPVTPGEPASISCQASESLVHSNRNTYLHWYLQKPGQSPQLLIYKVSNRFSGVPDRFSGSGSGTDFTLKISRVEAEDVGVYYCSQNTHVPPTFGQGTKVEIERTVAAPSVFIFPPSDEQLKSGTASVVCLLNNFYPREAKVQWKVDNALQSGNSQESVTEQDSKDSTYSLSSTLTLSKADYEKHKVYACEVTHQGLSSPVTKSFNRGEC
notes: heterodimerized IgG1, mutation in one H chain only; also called He Ab
B2: GpH7-A5/GpH7-B3 variant N325_10E/GpL16-k0 (antibody, human IgG1, kappa)
heavy 1: not shown
heavy 2: not shown
light: B1 light
notes: as for B1
B3: GpH7-A5/GpH7-B3 variant P331_13S/GpL16-k0 (antibody, human IgG1, kappa)
heavy 1: not shown
heavy 2: not shown
light: B1 light
notes: as for B1
B4: GpH7-A5/GpH7-B3 variant E333_15Y/GpL16-k0 (antibody, human IgG1, kappa)
heavy 1: not shown
heavy 2: not shown
light: B1 light
notes: as for B1
B5: GpH7-A5/GpH7-B3 variant L234_04F/GpL16-k0 (antibody, human IgG1, kappa)
heavy 1: not shown
heavy 2: not shown
light: B1 light
notes: as for B1
B6: GpH7-A5/GpH7-B3 variant I336_18N/GpL16-k0 (antibody, human IgG1, kappa)
heavy 1: not shown
heavy 2: not shown
light: B1 light
notes: as for B1
B7: GpH7-A5/GpH7-B3 variant E333_09D/GpL16-k0 (antibody, human IgG1, kappa)
heavy 1: not shown
heavy 2: not shown
light: B1 light
notes: as for B1
B8: GpH7-A5/GpH7-B3 variant P331_09D/GpL16-k0 (antibody, human IgG1, kappa)
heavy 1: not shown
heavy 2: not shown
light: B1 light
notes: as for B1
B9: GpH7-A5/GpH7-B3 variant Q295_10E/GpL16-k0 (antibody, human IgG1, kappa)
heavy 1: not shown
heavy 2: not shown
light: B1 light
notes: as for B1
B10: GpH7-A5/GpH7-B3 variant P331_14T/GpL16-k0 (antibody, human IgG1, kappa)
heavy 1: not shown
heavy 2: not shown
light: B1 light
notes: as for B1
B11: GpH7-A5/GpH7-B3 variant P331_02A/GpL16-k0 (antibody, human IgG1, kappa)
heavy 1: not shown
heavy 2: not shown
light: B1 light
notes: as for B1
B12: GpH7-A5/GpH7-B3 variant E333_08L/GpL16-k0 (antibody, human IgG1, kappa)
heavy 1: not shown
heavy 2: not shown
light: B1 light
notes: as for B1
B13: GpH7-A5/GpH7-B3 variant N325_15Y/GpL16-k0 (antibody, human IgG1, kappa)
heavy 1: not shown
heavy 2: not shown
light: B1 light
notes: as for B1
B14: GpH7-A5/GpH7-B3 variant K326_12R/GpL16-k0 (antibody, human IgG1, kappa)
heavy 1: not shown
heavy 2: not shown
light: B1 light
notes: as for B1
B15: GpH7-A5/GpH7-B3 variant P331_18N/GpL16-k0 (antibody, human IgG1, kappa)
heavy 1: not shown
heavy 2: not shown
light: B1 light
notes: as for B1
B16: GpH7-A5/GpH7-B3 variant H268_11K/GpL16-k0 (antibody, human IgG1, kappa)
heavy 1: not shown
heavy 2: not shown
light: B1 light
notes: as for B1
B17: GpH7-A5/GpH7-B3 variant H268_12R/GpL16-k0 (antibody, human IgG1, kappa)
heavy 1: not shown
heavy 2: not shown
light: B1 light
notes: as for B1
B18: GpH7-A5/GpH7-B3 variant P331_08L/GpL16-k0 (antibody, human IgG1, kappa)
heavy 1: not shown
heavy 2: not shown
light: B1 light
notes: as for B1
B19: GpH7-A5/GpH7-B3 variant N325_14T/GpL16-k0 (antibody, human IgG1, kappa)
heavy 1: not shown
heavy 2: not shown
light: B1 light
notes: as for B1
B20: GpH7-A5/GpH7-B3 variant Q295_06M/GpL16-k0 (antibody, human IgG1, kappa)
heavy 1: not shown
heavy 2: not shown
light: B1 light
notes: as for B1

molecular target: T1, FcγRIIa R (FcγRIIa allotype with Arg at …); test: SPR (Biacore), antibody captured, FcγR analyte; vs GpH7-A5/GpH7-B3/GpL16-k0 = 100
Method: (§1) The heterodimerized antibodies He Abs in which one of the H chains was introduced with an alteration were assayed for their binding activities to each activating FcγR and inhibitory FcγR according to the method described in Example 4. […] The activating FcγRs in FIGS. 26, 27, 28, and 29 are FcγRIa, FcγRIIa (R), FcγRIIa (H), and FcγRIIIa, respectively.
(§2) Analysis of interaction between objective antibody and the FcγR was carried out using Biacore T100 (GE Healthcare). HBS-EP+ (GE Healthcare) was used as the running buffer, and the measurement temperature was set to 25° C. Chips produced by immobilizing the antigen peptide by the amine coupling method to a Series S Sencor Chip CM5 (GE Healthcare), or alternatively, chips produced by allowing preliminarily biotinylated antigen peptides to interact with and immobilize onto a Series S Sensor Chip SA (certified) (GE Healthcare) were used. Antibodies of interest were captured onto an antigen peptide-immobilized chip, and allowed to interact to each FcγR diluted with running buffer. To regenerate and repeatedly use the chip, the antibodies captured on the chip were washed off by reacting 10 mM glycine-HCl, pH 1.5.

He/Con_2aR	Binder
104 relative (HeCon Ab = 100)	B1
105 relative (HeCon Ab = 100)	B2
105 relative (HeCon Ab = 100)	B3
101 relative (HeCon Ab = 100)	B4
104 relative (HeCon Ab = 100)	B5
104 relative (HeCon Ab = 100)	B6
103 relative (HeCon Ab = 100)	B7
102 relative (HeCon Ab = 100)	B8
102 relative (HeCon Ab = 100)	B9
104 relative (HeCon Ab = 100)	B10
106 relative (HeCon Ab = 100)	B11
103 relative (HeCon Ab = 100)	B12
101 relative (HeCon Ab = 100)	B13
103 relative (HeCon Ab = 100)	B14
105 relative (HeCon Ab = 100)	B15
100 relative (HeCon Ab = 100)	B16
105 relative (HeCon Ab = 100)	B17
102 relative (HeCon Ab = 100)	B18
105 relative (HeCon Ab = 100)	B19
102 relative (HeCon Ab = 100)	B20

molecular target: T2, FcγRIIb, extracellular domain with …; test: as above
Method: as §1, §2

He/Con_2b	Binder
96.2 relative (HeCon Ab = 100)	B1
95.9 relative (HeCon Ab = 100)	B2
96.8 relative (HeCon Ab = 100)	B3
94.4 relative (HeCon Ab = 100)	B4
99.8 relative (HeCon Ab = 100)	B5
97.6 relative (HeCon Ab = 100)	B6
94.3 relative (HeCon Ab = 100)	B7
94.3 relative (HeCon Ab = 100)	B8
94.8 relative (HeCon Ab = 100)	B9
99.8 relative (HeCon Ab = 100)	B10
99.5 relative (HeCon Ab = 100)	B11
95 relative (HeCon Ab = 100)	B12
99.5 relative (HeCon Ab = 100)	B13
89.2 relative (HeCon Ab = 100)	B14
99.2 relative (HeCon Ab = 100)	B15
83 relative (HeCon Ab = 100)	B16
89.8 relative (HeCon Ab = 100)	B17
95.7 relative (HeCon Ab = 100)	B18
91.6 relative (HeCon Ab = 100)	B19
90.4 relative (HeCon Ab = 100)	B20
